# Molecular target: the molecule itself
# Assay: SEC
row,Protein,binding result
1,"synthetic L-GroES (natural protein, E. coli, UniProt P0A6F9 1-97, looked up) MNIRPLHDRVIVKRKEVETKSAGGIVLTGSAAAKSTRGEVLAVGNGRILENGEVKPLDVKVGDIVIFNDGYGVKSEKIDNEEVLIMSESDILAIVEA",binds
2,"recombinant GroES (natural protein, E. coli, UniProt P0A6F9 1-97, looked up) MNIRPLHDRVIVKRKEVETKSAGGIVLTGSAAAKSTRGEVLAVGNGRILENGEVKPLDVKVGDIVIFNDGYGVKSEKIDNEEVLIMSESDILAIVEA",binds

# Reference: paper PMC5094862 (Journal of the American Chemical Society, 2016)
